This is an account of results in patent publication US20140079753A1, “BMP BINDING PEPTIDES” (Affinergy, LLC, priority 2011, published 2014).

In experiment [1] the target is T1, BMP2 (Homo sapiens, UniProt P12643).
T1 construct: purchased MEDTRONIC, INC
T1 sequence (P12643 283-396): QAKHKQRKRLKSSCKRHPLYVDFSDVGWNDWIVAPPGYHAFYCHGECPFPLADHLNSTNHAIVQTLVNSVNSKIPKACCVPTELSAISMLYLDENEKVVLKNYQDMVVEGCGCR
Kind of experiment: BMP2 binding ELISA of synthetic truncation peptides. Also noted: key: (−) no binding; (+) binding similar to that of full-length SEQ ID NO: 148 binding; (−/+) binding decreased relative to full-length SEQ ID NO: 148 binding. The settings on record: relative to full-length SEQ ID NO: 148, ELISA. As to the method: The relative binding affinity of synthetic BMP binding peptides SEQ ID NOs: 54-56 for BMP2 is shown in FIG. 17 (SEQ ID NO: 54 (Peptide 1); SEQ ID NO: 55 (Peptide 2); SEQ ID NO: 56 (Peptide 3)). Briefly, the results shown in FIG. 17 were generated by immobilizing biotinylated BMP binding peptides on streptavidin coated plates. Serial dilutions of 100 nM, 20 nM, 4 nM, 0.8 nM, 0.16 nM, 0.032 nM 0.006 nM, and 0.001 nM of BMP-2 were incubated with the immobilized BMP binding peptides for 60 minutes, washed 5 times, and bound BMP quantified using ELISA using mouse anti-BMP2 antibody and anti-mouse IgG-alkaline phosphatase conjugate. In addition, the specificity of BMP binding peptide binding SEQ ID NO: 54 to various members of the BMP family was performed in a similar manner by titrating BMP2, BMP3, BMP5, BMP6, GDF5, GDF7, TGFb1, TGFb3, and PDGF-BB (see FIG. 18).
(§1) For the truncation analysis, peptides with one or more N or C-terminal deletions of SEQ ID NO: 148 were synthesized and tested for BMP2 binding using an ELISA assay. The truncation peptides are shown in Table 5 below along with the relative BMP2 binding activity that was measured for each of the peptides according to the procedure described herein above. The relative BMP2 binding activity is depicted as follows: (−) no binding; (+) binding similar to that of full-length SEQ ID NO: 148 binding; (−/+) binding decreased relative to full-length SEQ ID NO: 148 binding.

The test system of experiment [2] is adipose derived stem cells (ASCs). Put plainly: Phage whole cell ELISA for ASC binding. The settings on record: ranking among SEQ ID NO: 1 mutagenesis variants of Table 2. As to the method: Peptides that bind adipose derived stem cells (ASCs) were identified by phage display biopanning. ASCs were culture amplified from processed liposuction aspirate (<3 passages) (ZEN-BIO, Research Triangle Park, N.C.). After biopanning, individual plaques were picked, grown overnight, and tested for ASC binding activity using whole cell ELISA according to the following procedure. Phage supernatant was incubated for 30 min at room temperature with ASC monolayers established by overnight culture in 96 well plates. Cells were washed four times with Dulbecco's Phosphate Buffered Saline (DPBS) containing 2% FBS, then incubated with 100 μl of horseradish peroxidase conjugated anti-M13 antibody. After 30 minutes at room temperature, cells were washed four times with DPBS containing 2% FBS. M13 antibody binding was detected by the addition of 3,3′,5,5′-Tetramethylbenzidine (TMB). Blue reaction product, indicating positive binding phage, was measured by absorbance at 370 nm in a microplate reader. For the phage displaying ASC binding activity, DNA sequences were analyzed and translated into peptide sequences using Vector NTI DNA Analysis software and are shown below in Table 1.
Mutagenesis of Cell Binding Peptide Sequence SEQ ID NO: 1. A focused phage display library was generated around the cell binding sequence SEQ ID NO: 1 with each nucleotide position varying in identity at a ratio of 70:10:10:10, with the original nucleotide being the dominant form. This is considered a form of “light” mutagenesis, retaining the majority of residue identities with a few amino acid identity changes. The construction of this “degenerate” phage library was performed according to the methods described in Kay et al., 1996. Three rounds of phage display biopanning were performed on ASCs to enrich for positive binding sequences. Phage showing positive binding to ASCs, identified by whole cell ELISA, were re-amplified, retested, and submitted for DNA sequencing to determine the insert amino acid sequences. In FIG. 14 the single letter amino acid sequence of SEQ ID NO: 1 is shown at the top in white letters with black shading. The phage that retained cell binding activity to adipose derived stem cells (ASCs) and fibroblasts are listed below SEQ ID NO: 1 with original amino acids in white with black shading. Amino acid substitutions are shown in black letters with white shading.
On the technique in general: An ELISA detects its analyte on a solid surface through an enzyme-linked reagent.

Experiment [3] relates to dermal fibroblasts. Put plainly: Flow cytometry binding of biotinylated peptides to cells (Neutravidin-PE). The settings on record: biotinylated peptide 25 μM, 30 min at 4° C, percent positivity vs Neutravidin-PE alone; data not shown. The text has this: (§2) Synthetic biotinylated cell binding peptides SEQ ID NOs: 1 and 2 were examined for their ability to specifically bind ASCs compared to a number of other cells types including bone marrow mesenchymal stem cells (MSCs), dermal fibroblasts, red blood cells, monocytes, lymphocytes granulocytes, and platelets. The cell binding peptides were biotinylated as described herein at Example 2. Cultured cells of each type were either purchased (dermal fibroblasts) or isolated from human bone marrow (MSCs) or human blood. Cells were first harvested with 2 mM EDTA in DPBS and resuspended at 10^6/mL in PBS+2% fetal bovine serum (FBS). An aliquot of cells ([…]) was incubated in 50 μL of peptide solution (25 μM in PBS+FBS) for 30 min at 4° C. Cells were then washed twice in PBS+2% FBS with 300×g centrifugation for 5 min between washes. Fluorescently-tagged neutravidin (Neutravidin-PE from INVITROGEN) was then added to the cells to label biotinylated peptide bound to cells. Neutravidin-PE was diluted 1:250 from stock and applied at 50 μL to cells. Cells were then washed in PBS+FBS, and acquired on a BD FACSARRAY. Peptide reactivity was then measured as percent positivity relative to Neutravidin-PE staining without the addition of biotinylated peptide.
(Flow cytometry measures light scatter and fluorescence of single cells or particles in a stream.)

For experiment [4], the system named is human ASCs. The experiment is described as above. The settings on record: biotinylated peptide 25 μM, 30 min at 4° C, percent positivity vs Neutravidin-PE alone; data not shown.
Source text: as §2

Experiment [5] concerns human ASCs (hASCs). Put plainly: Cell capture by biotinylated peptide on streptavidin plate (CELLTITER GLO). The format is cell-based. The settings on record: 45 min room temperature, cellular ATP, FIG. 15. As to the method: (§3) In this experiment, the ability of biotinylated cell binding peptides SEQ ID NOs: 1 and 2 to capture ASCs and fibroblasts from a single cell suspension onto a solid support was examined. The cell binding peptides were biotinylated as described herein at Example 2. The cell binding peptides and control peptides lacking cell binding activity were added to a 96 well plate containing immobilized streptavidin. After 30 min at room temperature, excess peptide was washed away with PBS+0.1% Tween 20, followed by 2 washes with PBS. Dilutions of single cell suspensions of either human ASCs (hASCs), rabbit ASCs, rat fibroblasts, or human dermal fibroblasts (hDermFib) were added to the peptide coated wells and incubated for 45 min at room temperature with gentle shaking. Wells were washed 3 times with DPBS+2% FBS. The number of attached cells was determined by measuring cellular ATP with CELLTITER GLO reagent from PROMEGA.
On the technique in general: Cellular ATP, detected with luciferase, serves as a proxy for viable cell number.

Experiment [6] has as its system human dermal fibroblasts (hDermFib). The experiment is described as above. The format is cell-based. The settings on record: 45 min room temperature, cellular ATP, FIG. 15. As to the method:
as §3

The test system of experiment [7] is rabbit ASCs. Described as above. The settings on record: 45 min room temperature, cellular ATP, FIG. 15. The format is cell-based. As to the method: as §3
Experiment [8] has as its system rat fibroblasts. Described as above. The format is cell-based. The settings on record: 45 min room temperature, cellular ATP, FIG. 15. As to the method: as §3
In experiment [9] the target is T2, BMP2 (MEDTRONIC, INC.) (UniProt P12643 283-396, biotinylated with NHS-biotin (average of one biotin per protein molecule) in the phage ELISA; not biotinylated in the peptide ELISA).
T2 construct: also called bone morphogenic protein 2
Kind of experiment: ELISA of synthetic truncation peptides on BMP2; legend in paragraph 124: (-) no binding. As to the method: as §1

Take 191 (SIWDDWIG) [compound 191]: in experiment [1], the BMP2 binding result is “−/+”. On to SSFHISHDNIGVFVR [SEQ ID NO: 9], for which, in experiment [2], the “binding affinity for ASCs” value was “highest binding affinity”. Turning to 193 (IWDDWIGYS) [compound 193], in experiment [1], the BMP2 binding entry was “−”. For the molecule 188 (DWIGYSR) [compound 188], the BMP2 binding entry in experiment [1] is listed as “−”. On the same count and under the same terms, with 190 (SIWDDWIGY) [compound 190] the entry was “+”; with 186 (WDDWIGYSR) [compound 186], “−”; with 148 (SIWDDWIGYSR) [compound 148], “+”.

Take SHCVLGHDGRSRCII [SEQ ID NO: 2]: the “binding to dermal fibroblasts” value in experiment [3] was “significant binding”. Also, the “binding to human ASCs” value in [4] is “significant binding”. Further, in experiment [5], the “capture of human ASCs” value was “behaved similarly”. For the same molecule, the “capture of human fibroblasts” value in [6] is given as “behaved similarly”. In experiment [7], the “capture of rabbit ASCs” value is “behaved similarly”. Also, the “capture of rat fibroblasts” value in experiment [8] is “without exhibiting significant binding”. Turning to SNWHITHDSIGVLVR [SEQ ID NO: 3], the “binding affinity for ASCs” value in experiment [2] is “highest binding affinity”. Take 185 (IWDDWIGYSR) [compound 185]: the BMP2 binding entry in experiment [1] is reported as “−”. Still for that read-out and setting: with 189 (SIWDDWIGYS) [compound 189] the entry was “+”. With 197 (IWDDWI) [compound 197], the BMP2 binding entry in experiment [1] is recorded as “−”.

For the molecule 194 (IWDDWIGY) [compound 194], the BMP2 binding result in [1] was “−”. Same read-out and setting: with 187 (DDWIGYSR) [compound 187] the entry was “−”. As for SNWTSSHDDIGVFLR [SEQ ID NO: 29], the “binding affinity for ASCs” value in experiment [2] is “highest binding affinity”.

As for 196 (WDDWIG) [compound 196], the BMP2 binding result in experiment [1] was “−”.

As to 192 (SIWDDWI) [compound 192], the BMP2 binding result in experiment [1] was “−/+”. Take 195 (WDDWIGY) [compound 195]: the BMP2 binding entry in experiment [1] is “−”. As for SSWHISHDDIGVFIR [SEQ ID NO: 6], the “binding affinity for ASCs” value in experiment [2] is given as “highest binding affinity”. On to SSWHISHDSIGVLIR [SEQ ID NO: 1], for which the “binding to dermal fibroblasts” value in [3] is reported as “significant binding”. In [4], the “binding to human ASCs” value is “significant binding”. In addition, the “capture of human ASCs” value in experiment [5] is “capture human ASCs”. Further, the “capture of rabbit ASCs” value in experiment [7] is on record as “to a lesser extent”. Moreover, the “capture of rat fibroblasts” value in [8] is recorded as “to a lesser extent”.

Consider SFWHVTHDSTGVLIR [SEQ ID NO: 4], for which the “binding affinity for ASCs” value in [2] was “highest binding affinity”.

SAFHSSHDSIGVFIN [SEQ ID NO: 21]: the “binding affinity for ASCs” value in experiment [2] is listed as “highest binding affinity”.

B1: Truncation peptide SEQ ID NO: 185 (peptide)
peptide: IWDDWIGYSR
modifications: C-terminal GSSGK(biotin) or other spacer group possible; not stated for this assay
Regarding B1, the binding result in experiment [9] is given as “no binding”.

B2: Truncation peptide SEQ ID NO: 186 (peptide)
peptide: WDDWIGYSR
modifications: C-terminal GSSGK(biotin) or other spacer group possible; not stated for this assay
For the molecule B2, the binding result in experiment [9] is “no binding”.

B3: Truncation peptide SEQ ID NO: 194 (peptide)
peptide: IWDDWIGY
modifications: C-terminal GSSGK(biotin) or other spacer group possible; not stated for this assay
In the case of B3, the binding result in [9] is on record as “no binding”.

B4: Truncation peptide SEQ ID NO: 195 (peptide)
peptide: WDDWIGY
modifications: C-terminal GSSGK(biotin) or other spacer group possible; not stated for this assay
notes: also called WDDWIGY
In the case of B4, in [9], the binding result is recorded as “no binding”.

B5: Truncation peptide SEQ ID NO: 196 (peptide)
peptide: WDDWIG
modifications: C-terminal GSSGK(biotin) or other spacer group possible; not stated for this assay
notes: also called WDDWIG
B5: the binding result in experiment [9] was “no binding”.

B6: Truncation peptide SEQ ID NO: 187 (peptide)
peptide: DDWIGYSR
modifications: C-terminal GSSGK(biotin) or other spacer group possible; not stated for this assay
Regarding B6, in experiment [9], the binding result is “no binding”.

B7: Truncation peptide SEQ ID NO: 197 (peptide)
peptide: IWDDWI
modifications: C-terminal GSSGK(biotin) or other spacer group possible; not stated for this assay
notes: also called IWDDWI
Consider B7, for which the binding result in [9] is “no binding”.

B8: Truncation peptide SEQ ID NO: 188 (peptide)
peptide: DWIGYSR
modifications: C-terminal GSSGK(biotin) or other spacer group possible; not stated for this assay
notes: also called DWIGYSR
B8: the binding result in experiment [9] is on record as “no binding”.

B9: Truncation peptide SEQ ID NO: 193 (peptide)
peptide: IWDDWIGYS
modifications: C-terminal GSSGK(biotin) or other spacer group possible; not stated for this assay
B9: the binding result in experiment [9] is on record as “no binding”.
